These results are taken from WO2020239014A1 (dated 2020).

For orientation: EC50 means the midpoint of the concentration-response curve. One may read the Kd as the free concentration of one partner at which half of the binding sites on the other are occupied at equilibrium, for simple one-to-one binding. A low value points to higher affinity. By koff is commonly meant the first-order rate constant of dissociation. The low end stands for a long-lived complex, the high end for a short-lived complex. As usually defined, the kon is the rate constant with which the complex forms. A lower kon goes with slower complex formation.

Experiment [1] deals with T1, CGRPα (4013281-1000, Bachem) (human, UniProt P06881 83-119, not fully specified).
T1 construct: mature; ELISA: coated Bachem CGRPα; also called α-CGRP; human CGRP
T1 peptide (looked up): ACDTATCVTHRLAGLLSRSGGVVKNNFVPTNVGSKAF
Nature of the experiment: ELISA, coated CGRPα titrated (0-0.2 μg/mL), antibody fixed at 1 μg/mL. Background: ELISA stands for enzyme-linked immunosorbent assay.

Experiment [2] has as its target T1, CGRPα (4013281-1000, Bachem). Put plainly: BLI (Octet RED 96), α-CGRP on streptavidin biosensors, antibody in solution, 1:1 model.
The target is the same in experiment [3]. Put plainly: cell-based or functional assay.

Several values for one entry are separate records, joined by “and”; a condition that tells them apart may be missing. Equal values may be shown once.

B1: CGRPM5-BA51.23-IgG2 (antibody, V domains shown)
VH: QVQLVQSGAEVKKPGASVKVSCKASGYTFTRYTMHWIRQAPGQGLEWMGYIYPSSGYTIYNQKFQGRVTMTRDTSTSTVYMELSSLRSEDTAVYYCATEGHYAGNGNYEGYWGQGTTVTVSS
VL: DIVMTQSPSSLSASVGDRVTITCRASSSISSNYLHWYQQKPGKAPKLLIYRTSNLASGVPSRFSGSGSGTDFTLTISSLQPEDFATYYCQQGSSIPFTFGQGTKLEIK
notes: Humanized BA51, IgG2; also called CGRP-BA51.23; CGRP-BA51.23-IgG2
Consider B1, for which the EC50 in experiment [1] is 0.0135 µg/mL and 0.036 µg/mL. In experiment [2], this molecule returned a dissociation constant (Kd) of under 1 pM, an off-rate constant (koff) of under 1e-07 s⁻¹ and a kon of 122000 M⁻¹ s⁻¹.

B2: CGRPM5-BA51.23-IgG2-N105D (antibody, V domains shown)
VH: QVQLVQSGAEVKKPGASVKVSCKASGYTFTRYTMHWIRQAPGQGLEWMGYIYPSSGYTIYNQKFQGRVTMTRDTSTSTVYMELSSLRSEDTAVYYCATEGHYAGDGNYEGYWGQGTTVTVSS
VL: DIVMTQSPSSLSASVGDRVTITCRASSSISSNYLHWYQQKPGKAPKLLIYRTSNLASGVPSRFSGSGSGTDFTLTISSLQPEDFATYYCQQGSSIPFTFGQGTKLEIK
notes: IgG2; also called optimized BA51.23 antibody (N105D)
Consider B2, for which, in experiment [3], the “EC50, cell-based cAMP activation assay (HTRF) with CGRP” value amounted to 32 µg/mL. The same molecule had a concentration giving a half-maximal response (EC50) in experiment [1] of 0.00844 µg/mL.

B3: CGRPM5-BA51.23-IgG2-N105L (antibody, V domains shown)
VH: QVQLVQSGAEVKKPGASVKVSCKASGYTFTRYTMHWIRQAPGQGLEWMGYIYPSSGYTIYNQKFQGRVTMTRDTSTSTVYMELSSLRSEDTAVYYCATEGHYAGLGNYEGYWGQGTTVTVSS
VL: DIVMTQSPSSLSASVGDRVTITCRASSSISSNYLHWYQQKPGKAPKLLIYRTSNLASGVPSRFSGSGSGTDFTLTISSLQPEDFATYYCQQGSSIPFTFGQGTKLEIK
notes: IgG2; also called optimized BA51.23 antibody (N105L)
As to B3, the “EC50, cell-based cAMP activation assay (HTRF) with CGRP” value in experiment [3] amounted to 44.9 µg/mL. This molecule displayed an EC50 in experiment [1] of 0.0106 µg/mL.
